B1: Heat shock protein 105 kDa (protein, UniProt Q92598 2-858, looked up)
Heat shock protein 105 kDa: SVVGLDVGSQSCYIAVARAGGIETIANEFSDRCTPSVISFGSKNRTIGVAAKNQQITHANNTVSNFKRFHGRAFNDPFIQKEKENLSYDLVPLKNGGVGIKVMYMGEEHLFSVEQITAMLLTKLKETAENSLKKPVTDCVISVPSFFTDAERRSVLDAAQIVGLNCLRLMNDMTAVALNYGIYKQDLPSLDEKPRIVVFVDMGHSAFQVSACAFNKGKLKVLGTAFDPFLGGKNFDEKLVEHFCAEFKTKYKLDAKSKIRALLRLYQECEKLKKLMSSNSTDLPLNIECFMNDKDVSGKMNRSQFEELCAELLQKIEVPLYSLLEQTHLKVEDVSAVEIVGGATRIPAVKERIAKFFGKDISTTLNADEAVARGCALQCAILSPAFKVREFSVTDAVPFPISLIWNHDSEDTEGVHEVFSRNHAAPFSKVLTFLRRGPFELEAFYSDPQGVPYPEAKIGRFVVQNVSAQKDGEKSRVKVKVRVNTHGIFTISTASMVEKVPTEENEMSSEADMECLNQRPPENPDTDKNVQQDNSEAGTQPQVQTDAQQTSQSPPSPELTSEENKIPDADKANEKKVDQPPEAKKPKIKVVNVELPIEANLVWQLGKDLLNMYIETEGKMIMQDKLEKERNDAKNAVEEYVYEFRDKLCGPYEKFICEQDHQNFLRLLTETEDWLYEEGEDQAKQAYVDKLEELMKIGTPVKVRFQEAEERPKMFEELGQRLQHYAKIAADFRNKDEKYNHIDESEMKKVEKSVNEVMEWMNNVMNAQAKKSLDQDPVVRAQEIKTKIKELNNTCEPVVTQPKPKIESPKLERTPNGPNIDKKEEDLEDKNNFGAEPPHQNGECYPNEKNSVNMDLD
B2: Resistin (protein, UniProt Q9HD89 19-108, looked up)
Resistin: KTLCSMEEAINERIQEVAGSLIFRAISSIGLECQSVTSRGDLATCPRGFAVTGCTCGSACGSWDVRAETTCHCQCAGMDWTGARCCRVQP
B3: Serpin B8 (protein, UniProt P50452 1-374, looked up)
Serpin B8: MDDLCEANGTFAISLFKILGEEDNSRNVFFSPMSISSALAMVFMGAKGSTAAQMSQALCLYKDGDIHRGFQSLLSEVNRTGTQYLLRTANRLFGEKTCDFLPDFKEYCQKFYQAELEELSFAEDTEECRKHINDWVAEKTEGKISEVLDAGTVDPLTKLVLVNAIYFKGKWNEQFDRKYTRGMLFKTNEEKKTVQMMFKEAKFKMGYADEVHTQVLELPYVEEELSMVILLPDDNTDLAVVEKALTYEKFKAWTNSEKLTKSKVQVFLPRLKLEESYDLEPFLRRLGMIDAFDEAKADFSGMSTEKNVPLSKVAHKCFVEVNEEGTEAAAATAVVRNSRCSRMEPRFCADHPFLFFIRHHKTNCILFCGRFSSP
B4: Copper transport protein ATOX1 (protein, UniProt O00244 1-68, looked up)
Copper transport protein ATOX1: MPKHEFSVDMTCGGCAEAVSRVLNKLGGVKYDIDLPNKKVCIESEHSMDTLLATLKKTGKTVSYLGLE
B5: Intraflagellar transport protein 25 homolog (protein, UniProt Q9Y547 1-144, looked up)
Intraflagellar transport …: MRKIDLCLSSEGSEVILATSSDEKHPPENIIDGNPETFWTTTGMFPQEFIICFHKHVRIERLVIQSYFVQTLKIEKSTSKEPVDFEQWIEKDLVHTEGQLQNEEIVAHDGSATYLRFIIVSAFDHFASVHSVSAEGTVVSNLSS
B6: PML-RARA-regulated adapter molecule 1 (protein, UniProt Q96QH2 1-670, looked up)
PML-RARA-regulated adapter …: MAHHLPAAMESHQDFRSIKAKFQASQPEPSDLPKKPPKPEFGKLKKFSQPELSEHPKKAPLPEFGAVSLKPPPPEVTDLPKKPPPPEVTDLPKKPPPPEVTDLPKKPPPPEVTDLPKKPSKLELSDLSKKFPQLGATPFPRKPLQPEVGEAPLKASLPEPGAPARKPLQPDELSHPARPPSEPKSGAFPRKLWQPEAGEATPRSPQPELSTFPKKPAQPEFNVYPKKPPQPQVGGLPKKSVPQPEFSEAAQTPLWKPQSSEPKRDSSAFPKKASQPPLSDFPKKPPQPELGDLTRTSSEPEVSVLPKRPRPAEFKALSKKPPQPELGGLPRTSSEPEFNSLPRKLLQPERRGPPRKFSQPEPSAVLKRHPQPEFFGDLPRKPPLPSSASESSLPAAVAGFSSRHPLSPGFGAAGTPRWRSGGLVHSGGARPGLRPSHPPRRRPLPPASSLGHPPAKPPLPPGPVDMQSFRRPSAASIDLRRTRSAAGLHFQDRQPEDIPQVPDEIYELYDDVEPRDDSSPSPKGRDEAPSVQQAARRPPQDPALRKEKDPQPQQLPPMDPKLLKQLRKAEKAEREFRKKFKFEGEIVVHTKMMIDPNAKTRRGGGKHLGIRRGEILEVIEFTSNEEMLCRDPKGKYGYVPRTALLPLETEVYDDVDFCDPLENQPLPLGR
B7: Galectin-9 (protein, UniProt O00182 1-355, looked up)
Galectin-9: MAFSGSQAPYLSPAVPFSGTIQGGLQDGLQITVNGTVLSSSGTRFAVNFQTGFSGNDIAFHFNPRFEDGGYVVCNTRQNGSWGPEERKTHMPFQKGMPFDLCFLVQSSDFKVMVNGILFVQYFHRVPFHRVDTISVNGSVQLSYISFQNPRTVPVQPAFSTVPFSQPVCFPPRPRGRRQKPPGVWPANPAPITQTVIHTVQSAPGQMFSTPAIPPMMYPHPAYPMPFITTILGGLYPSKSILLSGTVLPSAQRFHINLCSGNHIAFHLNPRFDENAVVRNTQIDNSWGSEERSLPRKMPFVRGQSFSVWILCEAHCLKVAVDGQHLFEYYHRLRNLPTINRLEVGGDIQLTHVQT
B8: Alpha-2-HS-glycoprotein (protein, UniProt P02765 19-300; P02765 341-367, looked up)
Alpha-2-HS-glycoprotein chain … 1: APHGPGLIYRQPNCDDPETEEAALVAIDYINQNLPWGYKHTLNQIDEVKVWPQQPSGELFEIEIDTLETTCHVLDPTPVARCSVRQLKEHAVEGDCDFQLLKLDGKFSVVYAKCDSSPDSAEDVRKVCQDCPLLAPLNDTRVVHAAKAALAAFNAQNNGSNFQLEEISRAQLVPLPPSTYVEFTVSGTDCVAKEATEAAKCNLLAEKQYGFCKATLSEKLGGAEVAVTCMVFQTQPVSSQPQPEGANEAVPTPVVDPDAPPSPPLGAPGLPPAGSPPDSHVL
Alpha-2-HS-glycoprotein chain … 2: TVVQPSVGAAAGPVVPPCPGRIRHFKV
B9: Perilipin-3 (protein, UniProt O60664 2-434, looked up)
Perilipin-3: SADGAEADGSTQVTVEEPVQQPSVVDRVASMPLISSTCDMVSAAYASTKESYPHIKTVCDAAEKGVRTLTAAAVSGAQPILSKLEPQIASASEYAHRGLDKLEENLPILQQPTEKVLADTKELVSSKVSGAQEMVSSAKDTVATQLSEAVDATRGAVQSGVDKTKSVVTGGVQSVMGSRLGQMVLSGVDTVLGKSEEWADNHLPLTDAELARIATSLDGFDVASVQQQRQEQSYFVRLGSLSERLRQHAYEHSLGKLRATKQRAQEALLQLSQVLSLMETVKQGVDQKLVEGQEKLHQMWLSWNQKQLQGPEKEPPKPEQVESRALTMFRDIAQQLQATCTSLGSSIQGLPTNVKDQVQQARRQVEDLQATFSSIHSFQDLSSSILAQSRERVASAREALDHMVEYVAQNTPVTWLVGPFAPGITEKAPEEKK
B10: Bone marrow proteoglycan (protein, UniProt P13727 17-222, looked up)
Bone marrow proteoglycan: LHLRSETSTFETPLGAKTLPEDEETPEQEMEETPCRELEEEEEWGSGSEDASKKDGAVESISVPDMVDKNLTCPEEEDTVKVVGIPGCQTCRYLLVRSLQTFSQAWFTCRRCYRGNLVSIHNFNINYRIQCSVSALNQGQVWIGGRITGSGRCRRFQWVDGSRWNFAYWAAHQPWSRGGHCVALCTRGGHWRRAHCLRRLPFICSY
B11: Lysozyme C (protein, UniProt P61626 19-148, looked up)
Lysozyme C: KVFERCELARTLKRLGMDGYRGISLANWMCLAKWESGYNTRATNYNAGDRSTDYGIFQINSRYWCNDGKTPGAVNACHLSCSALLQDNIADAVACAKRVVRDPQGIRAWVAWRNRCQNRDVRQYVQGCGV
B12: UDP-N-acetylglucosamine--peptide N-acetylglucosaminyltransferase 110 kDa subunit (protein, UniProt O15294 2-1046, looked up)
UDP-N-acetylglucosamine--pepti …: ASSVGNVADSTEPTKRMLSFQGLAELAHREYQAGDFEAAERHCMQLWRQEPDNTGVLLLLSSIHFQCRRLDRSAHFSTLAIKQNPLLAEAYSNLGNVYKERGQLQEAIEHYRHALRLKPDFIDGYINLAAALVAAGDMEGAVQAYVSALQYNPDLYCVRSDLGNLLKALGRLEEAKACYLKAIETQPNFAVAWSNLGCVFNAQGEIWLAIHHFEKAVTLDPNFLDAYINLGNVLKEARIFDRAVAAYLRALSLSPNHAVVHGNLACVYYEQGLIDLAIDTYRRAIELQPHFPDAYCNLANALKEKGSVAEAEDCYNTALRLCPTHADSLNNLANIKREQGNIEEAVRLYRKALEVFPEFAAAHSNLASVLQQQGKLQEALMHYKEAIRISPTFADAYSNMGNTLKEMQDVQGALQCYTRAIQINPAFADAHSNLASIHKDSGNIPEAIASYRTALKLKPDFPDAYCNLAHCLQIVCDWTDYDERMKKLVSIVADQLEKNRLPSVHPHHSMLYPLSHGFRKAIAERHGNLCLDKINVLHKPPYEHPKDLKLSDGRLRVGYVSSDFGNHPTSHLMQSIPGMHNPDKFEVFCYALSPDDGTNFRVKVMAEANHFIDLSQIPCNGKAADRIHQDGIHILVNMNGYTKGARNELFALRPAPIQAMWLGYPGTSGALFMDYIITDQETSPAEVAEQYSEKLAYMPHTFFIGDHANMFPHLKKKAVIDFKSNGHIYDNRIVLNGIDLKAFLDSLPDVKIVKMKCPDGGDNADSSNTALNMPVIPMNTIAEAVIEMINRGQIQITINGFSISNGLATTQINNKAATGEEVPRTIIVTTRSQYGLPEDAIVYCNFNQLYKIDPSTLQMWANILKRVPNSVLWLLRFPAVGEPNIQQYAQNMGLPQNRIIFSPVAPKEEHVRRGQLADVCLDTPLCNGHTTGMDVLWAGTPMVTMPGETLASRVAASQLTCLGCLELIAKNRQEYEDIAVKLGTDLEYLKKVRGKVWKQRISSPLFNTKQYTMELERLYLQMWEHYAAGNKPDHMIKPVEVTESA
B13: OCIA domain-containing protein 1 (protein, UniProt Q9NX40 1-245, looked up)
OCIA domain-containing …: MNGRADFREPNAEVPRPIPHIGPDYIPTEEERRVFAECNDESFWFRSVPLAATSMLITQGLISKGILSSHPKYGSIPKLILACIMGYFAGKLSYVKTCQEKFKKLENSPLGEALRSGQARRSSPPGHYYQKSKYDSSVSGQSSFVTSPAADNIEMLPHYEPIPFSSSMNESAPTGITDHIVQGPDPNLEESPKRKNITYEELRNKNRESYEVSLTQKTDPSVRPMHERVPKKEVKVNKYGDTWDE

System: human HL60 cells
Assay: SWATH-MS proteomics, differential protein representation, akirin2 KO vs WT HL60 cells
Assay type: cell-based
Settings: SWATH-MS, akirin2 KO vs WT HL60 cells; over-represented in KO
Method in brief: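 WT and akirin2 KO HL60 lysates (150 µg, n=3 biological replicates) were FASP trypsin-digested and desalted. A spectral library was built by IDA from 3 µg digests, then 5 µg per sample went to variable-window SWATH DIA over a 120-min 5–30% acetonitrile gradient. Identifications were accepted at 1% global FDR, with total-area-sum normalization.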

Molecule	Fold Change	Log (Fold Change)
B1	1.783	0.2511
B2	1.774	0.2489
B3	2.0658	0.3151
B4	1.845	0.266
B5	2.042	0.31
B6	2.265	0.355
B7	1.857	0.2687
B8	2.248	0.3517
B9	1.9528	0.2907
B10	6.406	0.8066
B11	2.204	0.3432
B12	2.047	0.3112
B13	1.964	0.2932
